The values that follow come from paper PMC2603183.

As a reminder, the Kd is the concentration at which binding is half-saturated. What is called stoichiometry N is a count of units in the complex or per binding partner.

The target of one assay is chicken IgY (chicken). Nature of the assay: SPR.
The target of assay [1] is FcY (CH3-CH4 domains of chicken IgY) (chicken). Nature of the assay: SEC. (Size exclusion chromatography separates by hydrodynamic size, large species first.)
The target of assay [2] is CHIR-AB1 extracellular domain (chicken). Nature of the assay: AUC.
The target is the same in assay [3]. Nature of the assay: SPR. A general note: SPR reads the build-up and loss of mass on a sensor chip optically.

Substance “CHIR-AB1 extracellular domain (receptor)” displayed a Kd with chicken IgY (chicken) of 800 nM. Besides, the stoichiometry N in assay [1] was 1.83; in assay [2], 2.

For chicken IgY (natural protein), in assay [3], the Kd is 17 nM; the microscopic KD, binding of the first CHIR-AB1 to IgY (bivalent analyte model) was determined as 403 nM; the microscopic KD, binding of the second CHIR-AB1 to IgY (bivalent analyte model) is 3900 nM.
